Ends that are not written are not given here. * marks the point of attachment. Dansyl = CN(C)c1cccc2c(S(=O)(=O)*)cccc12
Molecular target: PDZ1 NHERF1 Y38W
Test: FRET or BRET; equilibrium fluorescence titration, FRET between Trp38 (donor) and dansyl (acceptor), excitation 280 nm; 50 mM Na phosphate, pH 7.2, 300 mM NaCl, 5 mM DTT, 20% DMSO, 25 °C; without RS5517

Dansyl-NDSLL [Dansyl-NDSLL, dansylated peptide of the C-terminal sequence of the β2-adrenergic receptor] gave a Kd of 10 µM.

— PMC6002344
